The experiment has as its target GST-Pin1 (UniProt Q13526). The experiment in a line: fluorescence polarization; labelled pTide probe titrated with GST-Pin1 (the concentration is that of GST-Pin1). A general note: In fluorescence polarisation assays a small probe gives low polarisation when free and higher when bound to something large.

The values that follow come from US20180064666A1.

Usually EC50 (read off the curve) stands for the concentration needed to bring the measured effect to its halfway point.

GST-Pin1, sequence (Q13526 whole entry): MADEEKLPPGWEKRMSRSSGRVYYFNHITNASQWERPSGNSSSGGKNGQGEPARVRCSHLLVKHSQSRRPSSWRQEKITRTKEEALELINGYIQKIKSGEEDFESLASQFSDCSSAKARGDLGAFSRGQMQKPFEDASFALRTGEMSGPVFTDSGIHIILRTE

The substance “TAMRA-conjugated pTide (N-terminal TAMRA-labeled pTide, Bth-D-phos.Thr-Pip-Nal) (peptide)” returned an EC50 (read off the curve) of 0.5 µM.

For “pTide-HiLyte™ Fluor 488 (N-terminal HiLyte™ Fluor 488-labeled pTide, Bth-D-phos.Thr-Pip-Nal) (peptide)”, the EC50 (read off the curve) is 0.5 µM.
